Laboratory results taken from publication doi:10.1101/2021.05.23.445342 (2021).

Target: Calcineurin (human PPP3CA / PPP3R1 heterodimer) (human, UniProt Q08209 1-521; P63098 1-170)
Assay: SPR; apparent, steady-state fit

- Kd: 0.55 µM
B1: Biotin-Cys-AKAP5c_(ILVF->SA) (domain or fragment)
chain: CVAEETKPKDTELSQESDFKENGITEEKSKSEESKRMEPIAIIITDTEISEFDVTKSKNVPKQASASAENEQVGVFANDNGFEDRTSEQYETASAETASSLVKNAAQSSAEQSANEMASDDNKINNLLQ
modifications: biotin (EZ-Link Maleimide-PEG2-Biotin) on the unique added N-terminal Cys
